US20030068675, “Position dependent recognition of GNN nucleotide triplets by zinc fingers” (published 2003)
Positions count from the first letter of the chain named.

Legend:
Assay in all cases: EMSA
Details in all cases: tags: MBP fusion
[1] = biological target: T1, ZFP SBS#1384 (synthetic, UniProt P08047)
T1 chain: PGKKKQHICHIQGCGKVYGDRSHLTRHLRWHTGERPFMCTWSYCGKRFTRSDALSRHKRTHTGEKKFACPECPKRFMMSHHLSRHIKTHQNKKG
In short: (§1)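 Purified ZFP was titrated against labeled double-stranded target (1 nM or lower, at least 10-fold below expected Kd) carrying the natural binding site with flanks. Binding buffer was 10 mM Tris pH 7.5, 100 mM KCl, 1 mM MgCl2, 0.1 mM ZnCl2, 5 mM DTT, 10% glycerol, 0.02% BSA, with equilibration for at least 45 min. Bound and free target were separated on a 10% polyacrylamide gel.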

[2] = biological target: T2, ZFP SBS#1373 (synthetic, UniProt P08047)
T2 chain: T1 chain with M78R, H80D, H81A, S83T
In short: as §1

[3] = biological target: T3, ZFP SBS#1363 (synthetic)
T3 chain: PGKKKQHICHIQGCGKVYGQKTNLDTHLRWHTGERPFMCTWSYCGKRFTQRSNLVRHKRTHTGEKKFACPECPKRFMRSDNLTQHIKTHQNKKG
In short: as §1

[4] = biological target: ZFP SBS#1362 (synthetic)
In short: as §1

[5] = biological target: T4, ZFP SBS#1361 (synthetic)
T4 chain: T3 chain with R51S, S52G, V55Q
In short: as §1

[6] = biological target: T5, ZFP SBS#1369 (synthetic)
T5 chain: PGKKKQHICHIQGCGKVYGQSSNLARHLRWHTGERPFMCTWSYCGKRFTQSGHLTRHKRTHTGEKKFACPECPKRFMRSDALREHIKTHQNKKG
In short: as §1

[7] = biological target: T6, ZFP SBS#1368 (synthetic)
T6 chain: T5 chain with S51R, G52A, T55E
In short: as §1

[8] = biological target: ZFP SBS#1403 (synthetic)
In short: as §1

[9] = biological target: ZFP SBS#263 (synthetic, UniProt P08047)
ZFP SBS#263, sequence (P08047 other isoform, or with tags, fused parts or gaps): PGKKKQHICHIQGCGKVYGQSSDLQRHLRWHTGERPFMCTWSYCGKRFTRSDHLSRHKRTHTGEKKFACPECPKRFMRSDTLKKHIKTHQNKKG
In short: as §1

[10] = biological target: ZFP SBS#262 (synthetic)
ZFP SBS#262 (synthetic), sequence (chain, as listed by the source): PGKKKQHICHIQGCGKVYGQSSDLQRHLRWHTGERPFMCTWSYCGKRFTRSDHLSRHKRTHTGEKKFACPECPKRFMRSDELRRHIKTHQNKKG
In short: as §1

[11] = biological target: T7, ZFP SBS#1364 (synthetic)
T7 chain: T5 chain with S22A, A25S, G52S, T55A, R83A, E84Q
In short: as §1

[12] = biological target: T8, ZFP SBS#1367 (synthetic)
T8 chain: T5 chain with S21R, A25V, Q50T, T55V, R83A, E84Q
In short: as §1

[13] = biological target: T9, ZFP SBS#1365 (synthetic)
T9 chain: T5 chain with S21R, A25V, G52S, T55A, R83A, E84Q
In short: as §1

[14] = biological target: T10, ZFP SBS#1366 (synthetic)
T10 chain: T5 chain with S22A, A25S, Q50T, T55V, R83A, E84Q
In short: as §1

[15] = biological target: T11, ZFP SBS#1379 (synthetic)
T11 chain: T5 chain with Q20R, S22D, N23A, A25T, Q50R, G52D, H53E, L54R, T55K, A81D
In short: as §1

[16] = biological target: T12, ZFP SBS#1378 (synthetic)
T12 chain: T5 chain with Q20R, S22D, N23A, A25T, Q50R, G52D, H53D, T55Q, A81D
In short: as §1

[17] = biological target: T13, ZFP SBS#1375 (synthetic)
T13 chain: T5 chain with Q20R, S22D, N23A, A25T, Q50R, G52D, H53D, T55Q, A81E
In short: as §1

[18] = biological target: T14, ZFP SBS#1374 (synthetic, UniProt P08047)
T14 chain: T5 chain with Q20R, S22D, N23A, A25T, Q50R, G52D, H53E, T55Q, A81E
In short: as §1

[19] = biological target: T15, ZFP SBS#1377 (synthetic, UniProt P08047)
T15 chain: T5 chain with Q20R, S22D, N23A, A25T, Q50R, G52D, H53E, T55Q, A81D
In short: as §1

[20] = biological target: T16, ZFP SBS#1376 (synthetic)
T16 chain: T5 chain with Q20R, S22D, N23A, A25T, Q50R, G52D, H53E, L54R, T55K, A81E
In short: as §1

[21] = biological target: ZFP SBS#1397 (synthetic)
ZFP SBS#1397 (synthetic), sequence (chain, as listed by the source): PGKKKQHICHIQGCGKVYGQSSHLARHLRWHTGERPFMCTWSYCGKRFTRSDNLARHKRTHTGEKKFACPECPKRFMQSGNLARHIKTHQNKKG
In short: as §1

[22] = biological target: ZFP SBS#1395 (synthetic)
ZFP SBS#1395 (synthetic), sequence (chain, as listed by the source): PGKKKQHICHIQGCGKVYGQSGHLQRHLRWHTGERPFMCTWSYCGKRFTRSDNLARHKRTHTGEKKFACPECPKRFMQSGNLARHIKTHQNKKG
In short: as §1

[23] = biological target: T17, ZFP SBS#1396 (synthetic)
T17 chain: T1 chain with D20Q, S22A, T25A, A53N, S55A, M78Q, H80G, H81N, S83A
In short: as §1

[24] = biological target: T18, ZFP SBS#1360 (synthetic)
T18 chain: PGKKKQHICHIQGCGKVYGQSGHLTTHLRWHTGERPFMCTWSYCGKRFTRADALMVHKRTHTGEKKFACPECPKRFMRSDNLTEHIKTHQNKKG
In short: as §1

[25] = biological target: T19, ZFP SBS#1331 (synthetic)
T19 chain: T18 chain with Q20R, G22D, R50D, A51C, D52R, A53D, M55A, V56R, N81A, T83R
In short: as §1

[26] = biological target: T20, ZFP SBS#1329 (synthetic)
T20 chain: T5 chain with Q20R, S22D, N23H, A25T, R26T, Q50D, S51R, G52S, H53D
In short: as §1

[27] = biological target: T21, ZFP SBS#1389 (synthetic)
T21 chain: T18 chain with Q20R, G22D, R50D, A51C, D52R, A53D, M55A, V56R, N81A, T83R
In short: as §1

[28] = biological target: ZFP SBS#1394 (synthetic, UniProt P08047)
ZFP SBS#1394, sequence (P08047 other isoform, or with tags, fused parts or gaps): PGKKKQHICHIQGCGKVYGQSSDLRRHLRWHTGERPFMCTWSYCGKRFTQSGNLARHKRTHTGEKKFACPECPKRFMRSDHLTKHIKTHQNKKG
In short: as §1

[29] = biological target: ZFP SBS#1393 (synthetic)
In short: as §1

[30] = biological target: T22, ZFP SBS#1382 (synthetic)
T22 chain: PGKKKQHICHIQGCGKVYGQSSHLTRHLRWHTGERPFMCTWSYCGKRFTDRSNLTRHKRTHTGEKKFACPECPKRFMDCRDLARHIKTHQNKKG
In short: as §1

[31] = biological target: T23, ZFP SBS#1383 (synthetic)
T23 chain: T22 chain with R51P, S52G, T55V
In short: as §1

[32] = biological target: T24, ZFP SBS#1380 (synthetic)
T24 chain: T22 chain with D78E, C79R, R80G, A83T
In short: as §1

[33] = biological target: T25, ZFP SBS#1381 (synthetic)
T25 chain: T22 chain with R51P, S52G, T55V, D78E, C79R, R80G, A83T
In short: as §1

[34] = biological target: T26, ZFP SBS#1386 (synthetic)
T26 chain: T5 chain with Q20E, S21N, S22W, N23K, A25Q, R26A, H53S, A81H, R83T, E84T
In short: as §1

[35] = biological target: ZFP SBS#1385 (synthetic)
ZFP SBS#1385 (synthetic), sequence (chain, as listed by the source): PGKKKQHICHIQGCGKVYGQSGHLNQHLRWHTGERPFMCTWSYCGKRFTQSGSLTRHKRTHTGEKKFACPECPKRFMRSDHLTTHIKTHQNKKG
In short: as §1

[36] = biological target: T27, ZFP SBS#1400 (synthetic)
T27 chain: T5 chain with Q20R, S22D, G52S, T55A, A81D
In short: as §1

B1: GGTGTGGGC (dsDNA)
DNA 1: GGTGTGGGC
DNA 2: GCCCACACC
[1]
  Kd: 0.013 nM

B2: GTGGTGGGC (dsDNA)
DNA 1: GTGGTGGGC
DNA 2: GCCCACCAC
[2]
  Kd: 0.025 nM

B3: AAGGAAAAA (dsDNA)
DNA 1: AAGGAAAAA
DNA 2: TTTTTCCTT
[3]
  Kd: 74.1 nM
[4]
  Kd: 0.332 nM
[5]
  Kd: 0.835 nM

B4: CTGGGAGAT (dsDNA)
DNA 1: CTGGGAGAT
DNA 2: ATCTCCCAG
[6]
  Kd: 0.227 nM
[7]
  Kd: 0.051 nM

B5: ATGGCAATG (dsDNA)
DNA 1: ATGGCAATG
DNA 2: CATTGCCAT
[8]
  Kd: 0.07 nM

B6: GCGGGGGCT (dsDNA)
DNA 1: GCGGGGGCT
DNA 2: AGCCCCCGC
[9]
  Kd: 1 nM
[10]
  Kd: 20 nM

B7: ATGGGTGAA (dsDNA)
DNA 1: ATGGGTGAA
DNA 2: TTCACCCAT
[11]
  Kd: 1.22 nM
[12]
  Kd: 1.03 nM
[13]
  Kd: 0.152 nM
[14]
  Kd: 22.6 nM

B8: CCGGCGGTG (dsDNA)
DNA 1: CCGGCGGTG
DNA 2: CACCGCCGG
[15]
  Kd: 0.25 nM
[16]
  Kd: 0.012 nM
[17]
  Kd: 0.008 nM
[18]
  Kd: 0.003 nM
[19]
  Kd: 0.012 nM
[20]
  Kd: 0.858 nM

B9: GAAGAGGGA (dsDNA)
DNA 1: GAAGAGGGA
DNA 2: TCCCTCTTC
[21]
  Kd: 0.14 nM
[22]
  Kd: 0.025 nM
[23]
  Kd: 0.107 nM

B10: CAGTTGTGA (dsDNA)
DNA 1: CAGTTGTGA
DNA 2: TCACAACTG
[24]
  Kd: 41.7 nM

B11: CTGGCCTGG (dsDNA)
DNA 1: CTGGCCTGG
DNA 2: CCAGGCCAG
[25]
  Kd: 0.388 nM
[26]
  Kd: 0.68 nM
[27]
  Kd: 0.175 nM

B12: TGGGAAGCT (dsDNA)
DNA 1: TGGGAAGCT
DNA 2: AGCTTCCCA
[28]
  Kd: 0.04 nM
[29]
  Kd: 0.1 nM

B13: GCCGACGGT (dsDNA)
DNA 1: GCCGACGGT
DNA 2: ACCGTCGGC
[30]
  Kd: 3.1 nM
[31]
  Kd: 1.74 nM
[32]
  Kd: 0.076 nM
[33]
  Kd: 0.23 nM

B14: TGGGCAAGA (dsDNA)
DNA 1: TGGGCAAGA
DNA 2: TCTTGCCCA
[34]
  Kd: 0.193 nM
[35]
  Kd: 0.229 nM

B15: CCGGGTGAG (dsDNA)
DNA 1: CCGGGTGAG
DNA 2: CTCACCCGG
[36]
  Kd: 0.371 nM
